Among the data in US20140072613A1, “Compositions and Methods for Treating Cutaneous Scarring” (priority 2012, published 2014) are % activity, 100 µM values, retold here.

Among the targets are PKGδ(h) (human); Rsk1(h) (human) (UniProt Q15418); CaMKIIδ(h) (human) (UniProt Q13557); DAPK1(h) (human) (UniProt P53355); CDK6/cyclinD3(h) (human) (UniProt Q00534); PAR-1Bα(h) (human) (UniProt Q7KZI7).
Experiment in all cases: cell-based or functional assay
For a further assay, the target named is T1, TAO3(h) (human) (UniProt Q9H2K8).
T1 sequence (looked up): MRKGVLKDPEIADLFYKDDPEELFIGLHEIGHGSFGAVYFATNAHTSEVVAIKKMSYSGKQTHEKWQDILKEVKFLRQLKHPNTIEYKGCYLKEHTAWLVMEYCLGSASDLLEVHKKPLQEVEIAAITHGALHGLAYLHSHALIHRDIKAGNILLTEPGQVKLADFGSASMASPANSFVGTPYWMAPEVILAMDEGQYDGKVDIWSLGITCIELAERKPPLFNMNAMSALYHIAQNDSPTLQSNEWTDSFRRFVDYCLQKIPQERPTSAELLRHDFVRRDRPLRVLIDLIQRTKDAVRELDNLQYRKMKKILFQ

Another assay concerns the target T2, Flt3(D835Y)(h) (human) (UniProt P36888).
T2 sequence (looked up): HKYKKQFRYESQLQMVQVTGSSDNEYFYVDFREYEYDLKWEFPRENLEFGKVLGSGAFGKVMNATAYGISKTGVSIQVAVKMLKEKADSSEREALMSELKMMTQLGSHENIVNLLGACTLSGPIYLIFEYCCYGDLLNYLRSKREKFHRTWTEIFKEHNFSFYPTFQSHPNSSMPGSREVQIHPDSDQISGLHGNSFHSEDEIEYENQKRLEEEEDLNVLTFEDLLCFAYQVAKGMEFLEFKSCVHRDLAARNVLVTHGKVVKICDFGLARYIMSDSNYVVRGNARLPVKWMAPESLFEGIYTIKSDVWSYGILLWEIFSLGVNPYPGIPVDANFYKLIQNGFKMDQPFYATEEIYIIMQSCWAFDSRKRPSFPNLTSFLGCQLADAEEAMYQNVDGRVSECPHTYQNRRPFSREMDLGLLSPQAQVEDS

The target in the next assay is T3, BrSK1(h) (human) (UniProt Q8TDC3).
T3 sequence (looked up): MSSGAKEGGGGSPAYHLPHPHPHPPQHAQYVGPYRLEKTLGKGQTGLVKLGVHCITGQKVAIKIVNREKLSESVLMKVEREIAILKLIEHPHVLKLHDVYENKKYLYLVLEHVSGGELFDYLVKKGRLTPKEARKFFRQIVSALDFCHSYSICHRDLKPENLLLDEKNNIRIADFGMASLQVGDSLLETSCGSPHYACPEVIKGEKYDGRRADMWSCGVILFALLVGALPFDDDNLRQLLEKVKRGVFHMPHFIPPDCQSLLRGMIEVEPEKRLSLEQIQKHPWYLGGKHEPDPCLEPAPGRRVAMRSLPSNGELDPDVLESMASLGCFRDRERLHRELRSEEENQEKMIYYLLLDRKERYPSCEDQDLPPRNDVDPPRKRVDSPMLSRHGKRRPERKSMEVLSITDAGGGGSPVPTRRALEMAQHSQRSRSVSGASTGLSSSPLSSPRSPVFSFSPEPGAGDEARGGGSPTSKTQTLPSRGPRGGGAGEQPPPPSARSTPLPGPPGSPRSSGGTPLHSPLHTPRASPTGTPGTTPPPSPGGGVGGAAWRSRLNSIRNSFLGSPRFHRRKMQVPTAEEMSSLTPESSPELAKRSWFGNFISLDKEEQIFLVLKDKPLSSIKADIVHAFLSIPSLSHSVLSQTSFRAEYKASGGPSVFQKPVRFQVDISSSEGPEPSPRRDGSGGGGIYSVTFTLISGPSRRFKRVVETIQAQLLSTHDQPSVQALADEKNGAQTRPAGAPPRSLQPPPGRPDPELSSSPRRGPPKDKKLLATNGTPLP

The target in the next assay is T4, Ret(V804L)(h) (human) (UniProt P07949).
T4 sequence (looked up): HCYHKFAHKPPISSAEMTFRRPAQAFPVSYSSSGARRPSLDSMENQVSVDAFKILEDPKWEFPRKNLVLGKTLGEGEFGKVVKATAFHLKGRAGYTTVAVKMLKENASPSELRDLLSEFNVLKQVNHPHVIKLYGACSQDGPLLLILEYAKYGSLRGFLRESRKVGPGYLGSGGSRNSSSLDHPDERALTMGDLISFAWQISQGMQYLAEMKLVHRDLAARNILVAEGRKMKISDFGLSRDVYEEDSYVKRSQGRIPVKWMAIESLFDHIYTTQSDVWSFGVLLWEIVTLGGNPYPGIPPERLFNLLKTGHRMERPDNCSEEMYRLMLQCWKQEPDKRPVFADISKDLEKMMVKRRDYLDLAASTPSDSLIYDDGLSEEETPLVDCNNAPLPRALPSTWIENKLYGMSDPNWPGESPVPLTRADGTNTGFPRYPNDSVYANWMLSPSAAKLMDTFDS

A further assay has as its target T5, TSSK1(h) (human) (UniProt Q9BXA7).
T5 sequence (looked up): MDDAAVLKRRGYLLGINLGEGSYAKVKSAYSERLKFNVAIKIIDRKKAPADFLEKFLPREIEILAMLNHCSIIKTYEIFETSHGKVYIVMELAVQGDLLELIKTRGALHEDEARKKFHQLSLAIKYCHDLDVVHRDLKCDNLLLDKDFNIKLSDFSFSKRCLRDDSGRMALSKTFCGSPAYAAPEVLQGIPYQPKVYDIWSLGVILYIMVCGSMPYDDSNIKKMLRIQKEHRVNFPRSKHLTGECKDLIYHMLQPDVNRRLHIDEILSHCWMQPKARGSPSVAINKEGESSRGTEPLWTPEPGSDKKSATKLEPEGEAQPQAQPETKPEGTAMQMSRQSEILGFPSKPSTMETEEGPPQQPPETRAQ

PAR-1Bα(h) (human), sequence (Q7KZI7 other isoform, or with tags, fused parts or gaps limits assumed): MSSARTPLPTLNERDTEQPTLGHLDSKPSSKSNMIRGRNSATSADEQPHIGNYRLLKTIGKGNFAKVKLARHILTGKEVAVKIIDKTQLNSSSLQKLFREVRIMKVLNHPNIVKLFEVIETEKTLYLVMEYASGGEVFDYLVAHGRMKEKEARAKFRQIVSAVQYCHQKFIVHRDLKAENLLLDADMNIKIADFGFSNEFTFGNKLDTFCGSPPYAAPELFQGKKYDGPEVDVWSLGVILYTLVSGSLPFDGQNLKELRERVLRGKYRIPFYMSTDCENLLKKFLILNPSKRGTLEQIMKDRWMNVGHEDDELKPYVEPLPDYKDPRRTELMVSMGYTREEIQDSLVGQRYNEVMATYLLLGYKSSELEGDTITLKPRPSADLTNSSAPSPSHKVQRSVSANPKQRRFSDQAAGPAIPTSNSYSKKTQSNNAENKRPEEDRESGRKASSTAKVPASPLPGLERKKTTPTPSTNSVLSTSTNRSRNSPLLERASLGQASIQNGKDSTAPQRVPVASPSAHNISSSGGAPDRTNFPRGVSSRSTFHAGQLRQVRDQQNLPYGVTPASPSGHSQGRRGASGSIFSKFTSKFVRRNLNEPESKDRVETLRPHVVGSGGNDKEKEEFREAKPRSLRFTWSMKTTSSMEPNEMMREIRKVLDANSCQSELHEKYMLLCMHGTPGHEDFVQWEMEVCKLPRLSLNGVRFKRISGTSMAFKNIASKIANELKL
DAPK1(h) (human), sequence (P53355 1-363 limits assumed): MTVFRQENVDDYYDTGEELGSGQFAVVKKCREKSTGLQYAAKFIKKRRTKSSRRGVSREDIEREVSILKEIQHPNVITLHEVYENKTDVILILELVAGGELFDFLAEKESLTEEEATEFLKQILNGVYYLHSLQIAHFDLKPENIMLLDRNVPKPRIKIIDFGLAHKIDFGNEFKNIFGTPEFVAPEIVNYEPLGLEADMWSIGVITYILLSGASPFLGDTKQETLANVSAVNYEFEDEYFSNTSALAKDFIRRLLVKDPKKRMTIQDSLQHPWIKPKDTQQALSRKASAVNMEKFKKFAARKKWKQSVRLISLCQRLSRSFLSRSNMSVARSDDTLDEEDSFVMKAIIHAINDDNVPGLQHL
Rsk1(h) (human), sequence (Q15418 whole entry): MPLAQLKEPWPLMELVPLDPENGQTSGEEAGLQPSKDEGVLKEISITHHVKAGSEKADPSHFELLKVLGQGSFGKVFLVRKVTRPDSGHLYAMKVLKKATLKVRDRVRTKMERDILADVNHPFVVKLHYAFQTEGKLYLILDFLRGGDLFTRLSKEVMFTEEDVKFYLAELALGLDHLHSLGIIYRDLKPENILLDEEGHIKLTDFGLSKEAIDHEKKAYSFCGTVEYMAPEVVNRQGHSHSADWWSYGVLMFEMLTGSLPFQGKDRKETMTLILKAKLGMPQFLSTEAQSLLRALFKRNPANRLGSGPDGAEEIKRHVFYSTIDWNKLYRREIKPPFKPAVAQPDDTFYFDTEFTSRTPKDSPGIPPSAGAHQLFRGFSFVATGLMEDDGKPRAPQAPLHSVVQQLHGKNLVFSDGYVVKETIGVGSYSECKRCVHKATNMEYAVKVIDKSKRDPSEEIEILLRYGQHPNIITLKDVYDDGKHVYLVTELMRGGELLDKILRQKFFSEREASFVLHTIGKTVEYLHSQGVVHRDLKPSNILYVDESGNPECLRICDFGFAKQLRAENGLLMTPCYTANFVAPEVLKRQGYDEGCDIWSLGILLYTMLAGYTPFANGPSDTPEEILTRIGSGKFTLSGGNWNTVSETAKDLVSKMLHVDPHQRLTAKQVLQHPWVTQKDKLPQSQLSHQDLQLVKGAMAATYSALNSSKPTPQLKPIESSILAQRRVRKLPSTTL
CaMKIIδ(h) (human), sequence (Q13557 whole entry, stated change not applied): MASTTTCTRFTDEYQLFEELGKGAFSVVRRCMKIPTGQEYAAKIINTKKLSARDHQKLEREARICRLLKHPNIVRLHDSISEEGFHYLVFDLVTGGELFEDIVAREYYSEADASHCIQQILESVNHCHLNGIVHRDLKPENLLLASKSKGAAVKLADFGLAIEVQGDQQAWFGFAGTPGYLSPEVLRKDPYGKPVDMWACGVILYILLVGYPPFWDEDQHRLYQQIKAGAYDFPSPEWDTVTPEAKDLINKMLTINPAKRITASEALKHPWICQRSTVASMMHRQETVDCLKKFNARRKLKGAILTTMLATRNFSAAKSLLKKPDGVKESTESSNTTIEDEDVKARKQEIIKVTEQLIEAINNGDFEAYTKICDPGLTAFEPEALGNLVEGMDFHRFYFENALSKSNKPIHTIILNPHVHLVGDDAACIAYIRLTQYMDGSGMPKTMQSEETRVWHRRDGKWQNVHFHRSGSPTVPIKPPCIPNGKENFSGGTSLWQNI
CDK6/cyclinD3(h) (human), sequence (Q00534 whole entry, chain 1 of 2): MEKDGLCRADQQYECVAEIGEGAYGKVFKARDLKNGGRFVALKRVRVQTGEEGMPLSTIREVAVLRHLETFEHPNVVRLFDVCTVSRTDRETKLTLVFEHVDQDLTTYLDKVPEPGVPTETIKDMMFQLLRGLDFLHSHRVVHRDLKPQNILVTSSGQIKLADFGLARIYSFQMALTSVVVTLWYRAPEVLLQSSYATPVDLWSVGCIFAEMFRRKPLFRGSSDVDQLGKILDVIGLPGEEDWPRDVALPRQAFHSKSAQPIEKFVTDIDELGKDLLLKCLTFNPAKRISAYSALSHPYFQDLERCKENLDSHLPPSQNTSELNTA
CDK6/cyclinD3(h) (human), sequence (P30281 whole entry, chain 2 of 2, further chain): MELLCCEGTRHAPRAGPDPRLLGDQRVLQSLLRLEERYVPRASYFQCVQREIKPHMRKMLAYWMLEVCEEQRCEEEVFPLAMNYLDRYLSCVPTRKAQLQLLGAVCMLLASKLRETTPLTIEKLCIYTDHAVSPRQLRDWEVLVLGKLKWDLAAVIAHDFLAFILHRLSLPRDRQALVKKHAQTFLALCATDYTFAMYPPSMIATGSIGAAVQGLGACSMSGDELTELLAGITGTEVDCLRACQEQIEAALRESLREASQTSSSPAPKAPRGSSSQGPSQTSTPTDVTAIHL

Take MMI-0500 (peptide): the % activity, 100 µM with PKGδ(h) (human) is 61%; with Rsk1(h) (human), 34%; in the assay with CaMKIIδ(h) (human), 1%; with DAPK1(h) (human), 0%; with TAO3(h) (human) it was 12%; with Flt3(D835Y)(h) (human), 65%. In addition, the % activity, 100 µM came to 72% with BrSK1(h) (human); 20% in the assay with Ret(V804L)(h) (human); 46% with TSSK1(h) (human); 23% with CDK6/cyclinD3(h) (human); 97% with PAR-1Bα(h) (human).
